B1: Cellular tumor antigen p53 (Mus musculus), P02340 (parent)
chain: MTAMEESQSDISLELPLSQETFSGLWKLLPPEDILPSPHCMDDLLLPQDVEEFFEGPSEALRVSGAPAAQDPVTETPGPVAPAPATPWPLSSFVPSQKTYQGNYGFHLGFLQSGTAKSVMCTYSPPLNKLFCQLAKTCPVQLWVSATPPAGSRVRAMAIYKKSQHMTEVVRRCPHHERCSDGDGLAPPQHLIRVEGNLYPEYLEDRQTFRHSVVVPYEPPEAGSEYTTIHYKYMCNSSCMGGMNRRPILTIITLEDSSGNLLGRDSFEVRVCACPGRDRRTEEENFRKKEVLCPELPPGSAKRALPTCTSASPPQKKKPLDGEYFTLKIRGRKRFEMFRELNEALELKDAHATEESGDSRAHSSYLKTKKGQSTSRHKKTMVKKVGPDSD

Variants of: B1
Conditions: with ep300_human EP300, Q09472
ep300_human EP300, Q09472, sequence (Q09472 whole entry): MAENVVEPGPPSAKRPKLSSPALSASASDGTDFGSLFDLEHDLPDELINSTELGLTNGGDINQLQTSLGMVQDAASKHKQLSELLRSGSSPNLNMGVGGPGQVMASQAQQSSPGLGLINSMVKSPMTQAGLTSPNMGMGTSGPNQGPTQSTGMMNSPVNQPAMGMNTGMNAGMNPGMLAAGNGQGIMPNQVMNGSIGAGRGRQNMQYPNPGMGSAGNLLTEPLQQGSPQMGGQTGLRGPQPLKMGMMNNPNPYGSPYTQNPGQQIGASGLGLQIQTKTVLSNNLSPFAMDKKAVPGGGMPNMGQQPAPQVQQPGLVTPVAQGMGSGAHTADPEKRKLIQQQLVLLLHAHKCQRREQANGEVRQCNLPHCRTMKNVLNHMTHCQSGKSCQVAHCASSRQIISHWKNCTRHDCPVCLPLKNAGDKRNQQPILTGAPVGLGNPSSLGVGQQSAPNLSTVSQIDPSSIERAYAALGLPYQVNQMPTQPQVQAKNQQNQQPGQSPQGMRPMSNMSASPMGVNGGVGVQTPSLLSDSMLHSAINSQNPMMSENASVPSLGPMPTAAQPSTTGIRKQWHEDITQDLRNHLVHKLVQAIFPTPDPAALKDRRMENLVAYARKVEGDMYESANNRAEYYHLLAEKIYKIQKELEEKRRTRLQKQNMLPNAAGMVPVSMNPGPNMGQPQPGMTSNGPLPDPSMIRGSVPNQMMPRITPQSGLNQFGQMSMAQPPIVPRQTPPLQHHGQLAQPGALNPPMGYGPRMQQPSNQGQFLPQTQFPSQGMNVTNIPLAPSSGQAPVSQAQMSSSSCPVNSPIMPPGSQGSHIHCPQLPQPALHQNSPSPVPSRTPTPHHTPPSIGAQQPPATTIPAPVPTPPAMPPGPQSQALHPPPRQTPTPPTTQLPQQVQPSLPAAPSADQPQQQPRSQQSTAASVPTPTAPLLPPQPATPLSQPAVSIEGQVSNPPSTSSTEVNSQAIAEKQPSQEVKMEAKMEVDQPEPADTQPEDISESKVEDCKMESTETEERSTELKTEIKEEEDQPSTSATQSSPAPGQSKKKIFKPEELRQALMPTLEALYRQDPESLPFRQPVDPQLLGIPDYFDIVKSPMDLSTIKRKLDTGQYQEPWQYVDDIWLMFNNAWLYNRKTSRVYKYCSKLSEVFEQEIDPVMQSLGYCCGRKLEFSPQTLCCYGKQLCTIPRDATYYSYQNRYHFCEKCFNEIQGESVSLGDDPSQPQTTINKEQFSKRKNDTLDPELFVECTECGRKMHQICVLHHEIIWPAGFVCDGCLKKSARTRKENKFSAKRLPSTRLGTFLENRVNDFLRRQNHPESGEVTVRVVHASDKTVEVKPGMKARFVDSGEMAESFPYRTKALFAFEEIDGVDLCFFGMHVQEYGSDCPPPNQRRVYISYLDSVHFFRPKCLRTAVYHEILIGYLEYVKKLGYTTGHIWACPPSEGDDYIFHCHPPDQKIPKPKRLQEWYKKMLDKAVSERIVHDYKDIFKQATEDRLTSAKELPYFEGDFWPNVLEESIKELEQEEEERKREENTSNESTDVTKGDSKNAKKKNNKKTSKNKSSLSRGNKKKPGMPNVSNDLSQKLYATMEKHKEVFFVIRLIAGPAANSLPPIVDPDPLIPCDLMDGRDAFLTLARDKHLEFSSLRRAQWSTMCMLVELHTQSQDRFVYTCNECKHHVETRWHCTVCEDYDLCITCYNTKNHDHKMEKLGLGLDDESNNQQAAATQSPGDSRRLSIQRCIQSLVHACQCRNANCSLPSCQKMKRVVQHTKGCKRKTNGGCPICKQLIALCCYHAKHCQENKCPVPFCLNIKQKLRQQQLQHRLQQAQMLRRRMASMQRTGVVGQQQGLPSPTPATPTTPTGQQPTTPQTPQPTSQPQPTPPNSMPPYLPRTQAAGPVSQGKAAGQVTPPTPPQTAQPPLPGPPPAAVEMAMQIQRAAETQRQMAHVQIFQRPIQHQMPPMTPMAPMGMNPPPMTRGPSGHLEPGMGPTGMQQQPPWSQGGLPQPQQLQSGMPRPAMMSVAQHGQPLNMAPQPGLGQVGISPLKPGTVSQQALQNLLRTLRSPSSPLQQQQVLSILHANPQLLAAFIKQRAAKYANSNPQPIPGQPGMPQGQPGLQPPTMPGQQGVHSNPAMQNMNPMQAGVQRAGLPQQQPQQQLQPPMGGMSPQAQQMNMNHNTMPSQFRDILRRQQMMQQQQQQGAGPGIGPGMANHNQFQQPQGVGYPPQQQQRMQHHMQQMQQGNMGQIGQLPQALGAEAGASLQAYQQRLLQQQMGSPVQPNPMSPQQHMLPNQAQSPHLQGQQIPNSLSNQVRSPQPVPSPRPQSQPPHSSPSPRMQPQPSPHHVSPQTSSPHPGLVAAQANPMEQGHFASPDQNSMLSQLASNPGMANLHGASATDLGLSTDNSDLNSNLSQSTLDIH

Variant	effect of a mutation on the interaction
MTAMEESQSDISLELPLSQETFSGQSKLLPPEDILPSPHCMDDLLLPQDVEEFFEGPSEALRVSGAPAAQDPVTETPGPVAPAPATPWPLSSFVPSQKTYQGNYGFHLGFLQSGTAKSVMCTYSPPLNKLFCQLAKTCPVQLWVSATPPAGSRVRAMAIYKKSQHMTEVVRRCPHHERCSDGDGLAPPQHLIRVEGNLYPEYLEDRQTFRHSVVVPYEPPEAGSEYTTIHYKYMCNSSCMGGMNRRPILTIITLEDSSGNLLGRDSFEVRVCACPGRDRRTEEENFRKKEVLCPELPPGSAKRALPTCTSASPPQKKKPLDGEYFTLKIRGRKRFEMFRELNEALELKDAHATEESGDSRAHSSYLKTKKGQSTSRHKKTMVKKVGPDSD [L25Q;W26S]	decreasing interaction

Source: IntAct's records for PubMed 18612383
